Among the data in patent US20150368316A1 (ALBERT EINSTEIN COLLEGE OF MEDICINE OF YESHIVA UNIVERSITY, published 2015) are Kd values, retold here.

Assay [1] concerns the target human PD-L1 on mature human monocyte-derived dendritic cells (human) (UniProt Q9NZQ7). Kind of assay: flow cytometry, Kd estimated from MFI of Ig fusion protein binding to TNF-α-matured human monocyte-derived dendritic cells; the cells express both PD-L1 and PD-L2, so the value is an apparent avidity not resolved between the two ligands [panel B, table].
Assay [2] has as its target human PD-L2 on mature human monocyte-derived dendritic cells (human) (UniProt Q9BQ51). The assay is described as above.

Chain of human PD-L1 on mature human monocyte-derived dendritic cells (human) (Q9NZQ7 19-290): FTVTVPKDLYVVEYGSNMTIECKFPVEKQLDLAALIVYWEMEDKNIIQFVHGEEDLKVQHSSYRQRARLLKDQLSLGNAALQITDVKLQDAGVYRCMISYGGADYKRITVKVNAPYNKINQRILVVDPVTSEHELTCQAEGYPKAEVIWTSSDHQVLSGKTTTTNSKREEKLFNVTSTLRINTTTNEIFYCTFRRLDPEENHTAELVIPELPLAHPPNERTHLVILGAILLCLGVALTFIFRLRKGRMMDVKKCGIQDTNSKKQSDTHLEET
Chain of human PD-L2 on mature human monocyte-derived dendritic cells (human) (Q9BQ51 20-273): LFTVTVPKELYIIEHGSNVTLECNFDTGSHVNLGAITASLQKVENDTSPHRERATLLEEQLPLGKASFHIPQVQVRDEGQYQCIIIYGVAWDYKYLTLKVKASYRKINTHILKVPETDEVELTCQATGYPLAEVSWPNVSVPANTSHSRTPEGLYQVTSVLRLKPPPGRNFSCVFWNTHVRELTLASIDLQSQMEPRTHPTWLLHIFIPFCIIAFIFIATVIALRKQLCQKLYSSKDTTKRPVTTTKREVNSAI

As for PD-1 Ig (Fc fusion), the Kd in assay [1] and in assay [2] was 0.325 µM throughout.
